Data reported in patent US20200308281A1 (KITE PHARMA, published 2020).

Biological target: T1, alpha chain of the constant region of the murine T cell receptor (TCR) (murine, UniProt P01849 1-136)
T1 construct: Endogenous protein in mouse spleen tissue; The variable parts and the beta chains are those of the tissue's T cells and are not defined; also called mouse spleen TCR
T1 TCR alpha (looked up): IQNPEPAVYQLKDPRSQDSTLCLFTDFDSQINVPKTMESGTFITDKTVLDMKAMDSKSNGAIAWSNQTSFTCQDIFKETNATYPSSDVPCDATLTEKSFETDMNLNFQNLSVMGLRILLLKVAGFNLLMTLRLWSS
Experiment: immunohistochemistry on FFPE section of mouse spleen
Protocol: The candidate antibodies were screened for their utility in immunohistochemistry. Specimens were sectioned at 4 micron thickness, mounted onto positive-charged glass slides, dried, baked, deparaffinized, and rehydrated. Following rehydration, tissue sections were incubated in Envision Peroxidase (Dako) for 5 minutes to quench endogenous peroxidase. Sections underwent heat-induced epitope retrieval using high-pH buffer for 40 minutes in a water bath set to 95° C. followed by a rinse in neutral buffer. Slides were incubated with antibody or negative reagent control diluted in diluent for 30 minutes. Slides were then rinsed twice in buffer for 5 minutes each followed by detection using the Envision+Rabbit HRP Detection Kit (Dako) for 30 minutes. Slides were rinsed twice with buffer for 5 minutes each followed by incubation with DAB (Dako) for 5 minutes. Slides were rinsed with water, counterstained with hematoxylin, blued in ammonia water, dehydrated through graded alcohols, cleared in xylene, and coverslipped. As shown in FIGS. 5A-E, E7 TCR-transduced, Peripheral blood mononuclear cells (PBMCs) transduced with the MAGE A3/A6 TCR, and FFPE section of mouse spleen stain with the exemplary mAb clone 39 (KIP-8) antibody described herein. […] Normal mouse spleen sections stain with KIP-8 further indicating its specificity for the murine alpha constant sequence.

B1: KIP-8 antibody (mAb clone 39; Clone 39-4) (antibody, V domains shown)
VH: QEQLVESGGGLVQPEGSLTLTCTASGFDLGNNWIHWVRHAPGKGLEWIACVSGSSGNIYYATWAKGRFTMSKASSTTVTLRMTSLTAADTATYFCARGWNLWGPGTLVTVSS
VL: AQVLTQTPASVSAAVGGTVTINCQASQSVYSSNLLTWYQKKPGQPPKLLIYEASKLPSGIPSRFSGSGSGTQFTLTISDVQCADAATYYCLGIYDCVLADCQAFGGGTEVVVKG
notes: Rabbit monoclonal antibody; also called clone 39 (KIP-8); Clone 39-4 vh1
B1: binds.
